Experimental data: patent US20080195324A1

Target: 10-subunit yeast RNA polymerase II (yeast) (UniProt P16370)
Assay: 2.8 Å cocrystal structure; change in solvent-exposed surface of pol II residues, AREAIMOL, probe radius 1.4 Å

α-amanitin (peptide)
Δsurface area (Total): -541 Å^2
